Data taken from US7563864B2, “Prolyl endopeptidase mediated destruction of T cell epitopes in whole gluten” (Celiac Sprue Research Foundation, priority 2004, dated 2009).

Key:
[1] = test system: polyclonal T cell lines derived from small intestinal biopsies of Celiac Sprue patients; experiment: T cell assays, 14 polyclonal T cell lines taken together; assay type: cell-based, human; settings: PEP in combination with gastric and pancreatic enzymes and brush border membrane enzymes; in most cases
Protocol: Gluten treatment with gastric and pancreatic enzymes—Wheat gluten flour (3.0 g) was added to 100 ml of water with addition of HCl to achieve a stable suspension at pH 2.0. Pepsin (Pepsin NF powder, 1:10000, 60 mg) was mixed in to the gluten suspension and the gluten-pepsin mixture was shaken constantly at 37° C. for 2 h. After the pepsin treatment had been completed, 350 mg of Na2HPO4 were added and the pH adjusted to 7.9 by addition of 0.1 M NaOH. Trypsin/Chymotrypsin (38 mg) were added and the mixture was shaken again at 37° C. for 2 h and then heated to >95° C. for 10 min. After cooling to room temperature, 74 μL of the mixture was treated with Elastase (20 μL, 1 mg/ml) and the mixture was diluted to 1.7 mg/ml using PBS buffer, pH=7.5. The mixture was maintained at 37° C. After 2 h the digested gluten suspension was heated to 95° C. for 10 minutes and cooled to room temperature. After this, 20 μL of Carboxypeptidase A were added and incubated for 2 h at 37° C., and subsequently heat deactivated. […]
T cell assays—The generation of polyclonal gluten-specific T cell lines derived from ex vivo gluten challenged small intestinal biopsy specimens of adult Celiac Sprue patients have been described elsewhere. […] The proliferation in the wells was evaluated by ^3H thymidine incorporation from 48-72 hours after the addition of the T cells.

[2] = test system: TCC 387 E9; experiment: T cell clone assay, α-I specific clone; assay type: cell-based, human; settings: clone 387E9; FIGS. 6A and 6B; after 60 min PEP treatment
Protocol: (§1) Prolyl endopeptidase (PEP) and Brush Border Membrane (BBM) treatment—Recombinant PEP (Sp. Act ˜40 U/mg) was added at a ratio of 200 mU/mg of the PTC-digested gluten substrate, and incubated at 37° C. for 15 min to 1 h and then heat de-activated, depending on the sample. Subsequently BBM (65 mU (DPP IV activity)/mg substrate) was added and the mixture was incubated for 1 h and heat de-activated. Control samples contained PEP and BBM buffer solutions without the enzymes.
(§2) T cell assays—The generation of polyclonal gluten-specific T cell lines derived from ex vivo gluten challenged small intestinal biopsy specimens of adult Celiac Sprue patients have been described elsewhere. For this study 14 different intestinal T cell lines derived from 13 DQ2+celiac patients were selected based on two basic criteria; effective recognition of TG2-treated digests of gluten and significant responses to at least two different gluten epitopes (Table 2). The generation of intestinal T cell clones and the epitope specificity of these clones, except TCC 387.3, has been described elsewhere (10). The TCC 387.3 recognizes a TG2-dependent epitope, defined as γ-VI that is contained within residues 62-72 (PQQPFPQQPQQ) of recombinant γ-5 gliadin. […] The proliferation in the wells was evaluated by ^3H thymidine incorporation from 48-72 hours after the addition of the T cells.

[3] = test system: T cell clone 430.1.135; experiment: T cell clone assay, α-II specific clone; assay type: cell-based, human; settings: FIGS. 6A and 6B
Protocol: as §1, §2

[4] = test system: TCC 370 E3.19; experiment: T cell clone assay, α-III specific clone; assay type: cell-based, human; settings: clone 370E3.19; FIGS. 6A and 6B
Protocol: as §1, §2

[5] = test system: TCC 387.3; experiment: T cell clone assay, γ-VI specific clone; assay type: cell-based, human; settings: FIG. 6B
Protocol: as §1, §2

[6] = PEP activity assay; assay type: biochemical; settings: recombinant PEP; pH 7.5, 37° C.
Protocol: Carboxypeptidase A: 995 μL 1.0 mM Hippuryl-L-Phe in 25 mM Tris and 500 mM NaCl, pH 7.5 was mixed with 5 μL Carboxypeptidase A (0.2 mg/ml). Absorption at 254 nm was recorded for 2′, every 10″. One unit hydrolyzes 1 μmol of Hippuryl-L-Phe per min at pH 7.5 and 25° C. Extinction coefficient 0.36 cm^2/μmol at 254 nm. PEP: To 10 μL Z-Gly-Pro-p-Nitroanilide 16.8 mg/ml in dioxane were added 70 μL dioxane, 120 μL water and 800 μL PBS buffer. This substrate solution was incubated at 37° C. for 10′; then 0.2-2 μL PEP were added and the absorption at 410 nm was recorded for 2′, every 10″. One unit hydrolyzes 1 μmol of Z-Gly-Pro-p-Nitroanilide per min at pH 7.5 and 37° C. Extinction coefficient 8.8 cm^2/μmol at 410 nm.

B1: PEP: Recombinant prolyl endopeptidase, Flavobacterium meningosepticum enzyme (protein, UniProt P27028 21-705, looked up)
Prolyl endopeptidase: QNSNVLKYPETKKVSHTDTYFGTQVSDPYRWLEDDRAEDTKAWVQQEVKFTQDYLAQIPFRDQLKKQLMDIWNYEKISAPFKKGKYTYFSKNDGLQAQSVLYRKDAAGKTEVFLDPNKFSEKGTTSLASVSFNKKGTLVAYSISEGGSDWNKIIILDAETKKQLDETLLDVKFSGISWLGDEGFFYSSYDKPKEGSVLSGMTDKHKVYFHKLGTKQSQDELIIGGDKFPRRYIGAYVTDDQRYLVVSAANATNGNELYIKDLKNKTDFIPIITGFDSNVNVADTDGDTLYLFTDKDAPNKRLVKTTIQNPKAETWKDVIAETSEPLEINTGGGYFFATYMKDAIDQVKQYDKNGKLVRAIKLPGSGNASGFGGEKTEKDLYYSFTNYITPPTIFKYNVTTGNSEVYQKPKVKFNPENYVSEQVFYTSSDGTKIPMMISYKKGLKKDGKNPTILYSYGGFNISLQPAFSVVNAIWMENGGIYAVPNIRGGGEYGKKWHDAGTKMQKKNVFNDFIAAGEYLQKNGYTSKEYMALSGRSNGGLLVGATMTMRPDLAKVAFPGVGVLDMLRYNKFTAGAGWAYDYGTAEDSKEMFEYLKSYSPVHNVKAGTCYPSTMVITSDHDDRVVPAHSFKFGSELQAKQSCKNPILIRIETNAGHGAGRSTEQVVAENADLLSFALYEMGIKSLK
[1]
  immune response of patient derived intestinal T cells, relative to the response induced by positive controls: less than 2%
[2]
  T cell clone response to treated gluten: destruction of the α-I epitope: retains some activity
[3]
  T cell clone response to treated gluten: destruction of the α-II epitope: almost completely destroyed at the earliest time point
[4]
  T cell clone response to treated gluten: destruction of the α-III epitope: almost completely destroyed at the earliest time point
[5]
  T cell clone response to treated gluten: destruction of the γ-VI epitope: persist for longer durations
[6]
  specific activity (Sp. Act): ~40 U/mg
